Values belong to the sequence of their own block, whether it stands above or below them.
What was measured:
[1] = target: HLA-A*69:01; assay: IEDB peptide-MHC binding, purified MHC/direct/fluorescence; filed as Kd, often an IC50 or EC50 that approximates it; ≥ and ≤ were set here for values at or beyond the usual limits of such assays; settings: source organism: Mycobacterium tuberculosis
[2] = target: HLA-A*02:12; assay: as above; settings: source organism: Mycobacterium tuberculosis str. Haarlem
[3] = target: HLA-B*35:01; assay: IEDB peptide-MHC binding, purified MHC/competitive/radioactivity; filed as Kd, often an IC50 or EC50 that approximates it; ≥ and ≤ were set here for values at or beyond the usual limits of such assays
[4] = target: HLA-B*07:02; assay: as above
[5] = target: HLA-B*53:01; assay: as above
[6] = target: HLA-B*51:01; assay: as above
[7] = target: HLA-B*54:01; assay: as above
[8] = target: HLA-A*26:01; assay: as above
[9] = target: HLA-A*68:02; assay: as above
[10] = target: HLA-A*30:02; assay: as above
[11] = target: HLA-B*15:01; assay: as above
[12] = target: HLA-A*68:01; assay: as above
[13] = target: HLA-A*01:01; assay: as above
[14] = target: HLA-A*02:06; assay: as above
[15] = target: HLA-A*02:01; assay: as above
[16] = target: HLA-A*02:03; assay: as above
[17] = target: HLA-A*02:02; assay: as above
[18] = target: HLA-A*03:01; assay: IEDB peptide-MHC binding, purified MHC/competitive/fluorescence; filed as Kd, often an IC50 or EC50 that approximates it; ≥ and ≤ were set here for values at or beyond the usual limits of such assays
[19] = target: HLA-A*24:02; assay: IEDB peptide-MHC binding, purified MHC/competitive/fluorescence; ≥ and ≤ were set here for values at or beyond the usual limits of such assays
[20] = target: HLA-A*11:01; assay: as above
[21] = target: HLA-A*02:01; assay: as above
[22] = target: HLA-A*33:01; assay: IEDB peptide-MHC binding, purified MHC/competitive/radioactivity; filed as Kd, often an IC50 or EC50 that approximates it; ≥ and ≤ were set here for values at or beyond the usual limits of such assays; settings: source organism: Vaccinia virus Copenhagen
[23] = target: HLA-A*11:01; assay: as above; settings: source organism: Vaccinia virus Copenhagen
[24] = target: HLA-A*03:01; assay: as above; settings: source organism: Vaccinia virus Copenhagen
[25] = target: HLA-A*31:01; assay: as above; settings: source organism: Vaccinia virus Copenhagen
[26] = target: HLA-A*32:01; assay: as above; settings: source organism: Vaccinia virus WR
[27] = target: HLA-A*24:03; assay: IEDB peptide-MHC binding, purified MHC/direct/fluorescence; filed as Kd, often an IC50 or EC50 that approximates it; ≥ and ≤ were set here for values at or beyond the usual limits of such assays; settings: source organism: Amur virus
[28] = source organism: Mammarenavirus whitewaterense
[29] = source organism: Dengue virus 4 Philippines/H241/1956
[30] = source organism: Dengue virus 3 Martinique/1243/1999
[31] = source organism: SARS coronavirus Tor2
[32] = source organism: Vaccinia virus WR
[33] = source organism: Mammarenavirus lassaense
[34] = source organism: Hepacivirus hominis
[35] = source organism: Lassa virus Josiah
[36] = source organism: Triticum aestivum
[37] = source organism: Sudan ebolavirus
[38] = source organism: Vaccinia virus Copenhagen
[39] = source organism: Mammarenavirus juninense
[40] = source organism: Dengue virus 2 Jamaica/1409/1983
[41] = source organism: Dengue virus 1 Brazil/97-11/1997
[42] = source organism: Zaire ebolavirus
[43] = source organism: Dengue virus 4 Dominica/814669/1981
[44] = source organism: Trypanosoma cruzi

Sequence: GLLDVTDNV
- Kd [1]: 486 nM
- Kd [2]: 3 nM

Sequence: APTGGVVKI
- Kd [3, 28]: 9320 nM
- Kd [4, 28]: 1780 nM
- Kd [5, 28]: 10500 nM
- Kd [6, 28]: ≥ 57800 nM
- Kd [7, 28]: ≥ 78100 nM

Sequence: ETALMVIGM
- Kd [8, 29]: 308 nM
- Kd [9, 29]: 10.5 nM

Sequence: MTIDLDPVIY
- Kd [10, 30]: ≥ 25400 nM
- Kd [8, 30]: 5.59 nM
- Kd [3, 30]: 24.8 nM
- Kd [11, 30]: 5.32 nM
- Kd [12, 30]: 11.9 nM
- Kd [13, 30]: 2.99 µM

Sequence: VPYNMRVIHF
- Kd [3, 31]: 1440 nM
- Kd [4, 31]: 149 nM
- Kd [5, 31]: 688 nM
- Kd [6, 31]: 5590 nM
- Kd [7, 31]: 505 nM

Sequence: IQRTVFFVL
- Kd [11, 29]: 5.09 nM
- Kd [14, 29]: 12.3 nM

Sequence: GPMPYMISTY
- Kd [3, 32]: 89.3 nM
- Kd [4, 32]: 886 nM
- Kd [5, 32]: 272 nM
- Kd [6, 32]: ≥ 64700 nM
- Kd [7, 32]: 1500 nM

Sequence: LSASVFYRG
- Kd [11, 32]: 295 nM

Sequence: FPYIMGSVEL
- Kd [3, 33]: 12.4 nM
- Kd [4, 33]: 241 nM
- Kd [5, 33]: 80.2 nM
- Kd [6, 33]: 368 nM
- Kd [7, 33]: 155 nM

Sequence: LPTLFGRGV
- Kd [3, 32]: 1280 nM
- Kd [4, 32]: 8.32 nM
- Kd [5, 32]: 956 nM
- Kd [6, 32]: 6.04 nM
- Kd [7, 32]: 1.99 nM

Sequence: AMIELCGAF
- Kd [11, 32]: 0.336 nM

Sequence: CPASKKESVI
- Kd [3, 32]: ≥ 69900 nM
- Kd [4, 32]: 7.12 nM
- Kd [5, 32]: 92.3 nM
- Kd [6, 32]: 9310 nM
- Kd [7, 32]: 2410 nM

- Kd ([15]; source organism: Homo sapiens): 8.3 nM
Sequence: FLDEFMEAV

Sequence: FTILALFLA
- Kd [9, 30]: 35.5 nM
- Kd [14, 30]: 0.746 nM

Sequence: VLSDFRTWL
- Kd [16, 34]: 7.18 nM
- Kd [17, 34]: 1.72 nM
- Kd [9, 34]: 5280 nM
- Kd [15, 34]: 1.78 nM
- Kd [14, 34]: 305 nM

Sequence: ALPRNMVIT
- Kd [15, 35]: 12500 nM

Sequence: IILAHFLYK
- Kd ([18]; source organism: Bacillus anthracis str. A0488): 12 nM

- Kd [3, 36]: ≥ 87800 nM
- Kd [4, 36]: 583 nM
- Kd [5, 36]: ≥ 87700 nM
- Kd [6, 36]: 2160 nM
- Kd [7, 36]: ≥ 20300 nM
Sequence: QPFPQPQL

Sequence: EVLTLATGPV
- Kd [9, 29]: 23.5 nM

Sequence: RVIEVLQRA
- Kd ([15]; source organism: HIV-1 M:B_MN): 25 nM

Sequence: LIWTLDANI
- IC50 [19, 37]: ≥ 80.4 µM
- IC50 [20, 37]: ≥ 166 µM
- IC50 [21, 37]: 480 nM

Sequence: AVFKMSPGY
- Kd [10, 29]: 82.2 nM
- Kd [8, 29]: 1920 nM
- Kd [11, 29]: 14.3 nM

Sequence: LMDSIFVST
- Kd [16, 38]: 232 nM
- Kd [22]: ≥ 55.3 µM
- Kd [3, 38]: ≥ 77400 nM
- Kd [4, 38]: ≥ 77500 nM
- Kd [5, 38]: ≥ 78200 nM
- Kd [12, 38]: ≥ 77700 nM
- Kd [23]: ≥ 77.9 µM
- Kd [24]: ≥ 78 µM
- Kd [17, 38]: 0.343 nM
- Kd [9, 38]: 1790 nM
- Kd [6, 38]: ≥ 77500 nM
- Kd [14, 38]: 31.2 nM
- Kd [25]: ≥ 36 µM
- Kd [7, 38]: 5200 nM

- Kd [3, 36]: 9.37 nM
- Kd [4, 36]: 552 nM
- Kd [5, 36]: 256 nM
- Kd [6, 36]: 1370 nM
- Kd [7, 36]: ≥ 41000 nM
Sequence: QPFPQPQLPY

Sequence: LAKKSYVVF
- Kd [11, 38]: 97.3 nM

Sequence: MAVELFQTI
- Kd [3, 39]: 61 nM
- Kd [4, 39]: 7280 nM
- Kd [5, 39]: 6.99 nM
- Kd [6, 39]: 8.54 nM
- Kd [7, 39]: 188 nM

Sequence: LVRHYFRYI
- Kd [11, 32]: 158 nM

- Kd [15, 36]: 58 nM
Sequence: VLQQSTYQL

Sequence: LIALSVLAVL
- Kd [15, 35]: 2780 nM

Sequence: FLLSLVEFF
- Kd [11, 32]: 0.816 nM

Sequence: HSIENSSVNV
- Kd [9, 40]: 30.9 nM

Sequence: TSHNILVEV
- Kd [9, 41]: 7.42 nM

Sequence: MPYVFTLLF
- Kd [3, 31]: 0.59 nM
- Kd [4, 31]: 109 nM
- Kd [5, 31]: 0.124 nM
- Kd [6, 31]: 4.07 nM
- Kd [7, 31]: 30.6 nM

Sequence: NAICSAVPV
- Kd [9, 41]: 3.19 nM

Sequence: NVFKAMETF
- Kd [11, 32]: 22.8 nM

Sequence: FIMIVGGLV
- Kd ([15]; source organism: HIV-1 M:B_MN): 382 nM

Sequence: IPSLFIESSI
- Kd [3, 32]: ≥ 69900 nM
- Kd [4, 32]: 680 nM
- Kd [5, 32]: 1980 nM
- Kd [6, 32]: 1900 nM
- Kd [7, 32]: 429 nM

Sequence: YKLDISEAT
- IC50 [19, 42]: 29.8 µM
- IC50 [20, 42]: ≥ 139 µM
- IC50 [21, 42]: ≥ 158000 nM

Sequence: LMYADDTAGW
- Kd [11, 43]: 41.6 nM
- Kd [5, 43]: 46.1 nM

Sequence: VPAAIMMIL
- Kd [3, 32]: 18700 nM
- Kd [4, 32]: ≥ 76900 nM
- Kd [5, 32]: 19300 nM
- Kd [6, 32]: ≥ 77500 nM
- Kd [7, 32]: ≥ 78100 nM

Sequence: HINKLFSVF
- Kd [11, 32]: 0.915 nM
- Kd [26]: 907 nM

Sequence: LPFHRWHTM
- Kd [3, 31]: 7.16 nM
- Kd [4, 31]: 8.4 nM
- Kd [5, 31]: 100 nM
- Kd [6, 31]: 11.1 nM
- Kd [7, 31]: 274 nM

Sequence: CPAVAVHDF
- Kd [3, 31]: 14.4 nM
- Kd [4, 31]: 1640 nM
- Kd [5, 31]: 27.6 nM
- Kd [6, 31]: 241 nM
- Kd [7, 31]: 7480 nM

- Kd ([9]; source organism: Homo sapiens): 982 nM
Sequence: NLPIYSEEIV

- Kd [3, 36]: 6050 nM
- Kd [4, 36]: 5900 nM
- Kd [5, 36]: 3890 nM
- Kd [6, 36]: 774 nM
- Kd [7, 36]: ≥ 25600 nM
Sequence: IPEQSQCQAI

Sequence: SGTEKEFLR
- IC50 ([20]; source organism: Vaccinia virus): ≥ 412 µM

Sequence: TQVPFCSHHF
- Kd [11, 40]: 2.37 nM

Sequence: VPLPCQLMYA
- Kd [3, 32]: 2330 nM
- Kd [4, 32]: 7430 nM
- Kd [5, 32]: 460 nM
- Kd [6, 32]: 621 nM
- Kd [7, 32]: 0.136 nM

Sequence: CSAVPSHWV
- Kd [9, 40]: 9.21 nM

Sequence: LLLKERGLK
- Kd ([18]; source organism: Vibrio vulnificus CMCP6): 29.6 nM

Sequence: LPIDKCSRII
- Kd [3, 31]: 2550 nM
- Kd [4, 31]: 1400 nM
- Kd [5, 31]: 603 nM
- Kd [6, 31]: 681 nM
- Kd [7, 31]: 1140 nM

Sequence: NTPEGIIPAL
- Kd [9, 41]: 20.5 nM

Sequence: QIAMTDTTPF
- Kd [11, 41]: 7.04 nM

Sequence: LVAFLRFLTI
- Kd [9, 40]: 103 nM

Sequence: QMANGIALGL
- Kd [11, 30]: 191 nM

- Kd ([18]; source organism: Escherichia coli O139:H28 str. E24377A): 27.8 nM
Sequence: CLLNYSGLK

Sequence: ETFSMGLLCL
- Kd [8, 29]: 289 nM
- Kd [9, 29]: 6.59 nM
- Kd [13, 29]: 7.33 µM

Sequence: MHTDLELDF
- Kd [27]: 4.85 µM

Sequence: MTTEDMLSV
- Kd [8, 41]: 1260 nM
- Kd [9, 41]: 10.6 nM
- Kd [14, 41]: 10.6 nM
- Kd [13, 41]: 5.06 µM

Sequence: GSIGGVFTSV
- Kd [9, 41]: 20.1 nM

Sequence: LVGLWGAAAL
- Kd [16, 44]: 95.9 nM
- Kd [17, 44]: 89.7 nM
- Kd [9, 44]: 5250 nM
- Kd [15, 44]: 689 nM
- Kd [14, 44]: 397 nM

Sequence: LEADYVESM
- Kd [11, 32]: 434 nM
